The values below are quoted from earlier work in article PMC8296985, “A Covalent Calmodulin Inhibitor as a Tool to Study Cellular Mechanisms of K-Ras-Driven Stemness” (Frontiers in Cell and Developmental Biology, 2021).

In general, Kd refers to a measure of binding affinity in units of concentration.

In data set [1] the target is Calmodulin N-terminal lobe (Homo sapiens) (UniProt P0DP23).
Data set [2] addresses Calmodulin C-terminal lobe (Homo sapiens) (UniProt P0DP23).
For data set [3], the target named is Calmodulin (Homo sapiens) (UniProt P0DP23). The experiment in a line: fluorescence polarization. A general note: In fluorescence polarisation assays a small probe gives low polarisation when free and higher when bound to something large.

Consider K-Ras (from UniProt P01116), for which the Kd in data set [1] is 4000 nM; in data set [2] it was 500 nM.

Turning to F-PMCA peptide (from UniProt P20020), the Kd in data set [3] is 6 nM.
